Measured values from the nanobody polyreactivity screen of Harvey et al. (2022).

Assay: yeast display, Sf9 membrane polyspecificity reagent, FACS + sequencing; frameworks hold sequencing errors
Summary of the method: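 Synthetic nanobody libraries on Saccharomyces cerevisiae BJ5465 were galactose-induced for 36–48 hours, stained 1 hour at 4 °C with 10% biotinylated, detergent-solubilized Sf9 membrane reagent and enriched on streptavidin microbeads. FACS then separated cells into low and high (top ~1%) gates by anti-HA (expression) and streptavidin (reagent binding) fluorescence. Genes were colony-PCR amplified, MiSeq 2 × 250 sequenced and CDR-length filtered. A clone's polyreactivity label is that of its gate of origin.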

Sequence	polyreactivity (PSR sort gate)
QVQHVESGGCLLQAGGSLRLSCAASGSIFEPYTMGWYRQAPGKERELVAAITGSGGSTFYADSVKGRFTISRDNAKNTVYLQMNSLKPEVTALYYCNAYAYPYTDVDYWVQGTQVTVSS	low polyreactivity
QLQLEESGGGLVQAGGSLRLSCAASGRTFESYGMGLYRQATGKERELVAAISHNADSTYADSVKGRFTISRDNAKNTVYLQMNSLKSEDTAVYYCNAETPVRSDYWGQGTQVTVSS	low polyreactivity
QVHLVESGGALVQAGGSLRLSCAASGSTFWFYAMLWYRQAPGKERELVAAITRSAGSTYYADSVKGRFTISRDNAKYTVFLQMNSLKPEDTAVYYCAAQRESLYGGFDSWGQGTQVTVSS	low polyreactivity
QVQIVDSGGGVVQAGGILRLSSAASGYTFGSYDMGWYRQEPGKERELVAAISGGGSTNYADSVKGRFTISRDNAKNTVYLQMNCLKPEDTAVYYCAAYPYLYPLRFEEYDHWGQGTQVTVSS	low polyreactivity
QVQLVESGGGLVQAGGSLRLSCAASGRIFGSYVMGWYRQAPGKEMELVATISWSGGSTYYADSVKGRFTISRDNAKNTVYLQMNSLKPEDTAVYYCAAVSRYSHSPYHYDYWGQGTQVTVSS	high polyreactivity
QVQLVESGGGLVQAGGSLRLSCAASGFTFYNYAKGWYIQAPGNERELVAAITSRGGSTYYADSVKGRFTISRDNAKNTVYLQMNSLKPEDTAVYYCAAGYVHYGWFELDYWGQGTQVTVSS	low polyreactivity
QDQLVESRGGLVQAGGSLRLSCAASGFTFYYYAMGWYRQAPGKERELVAAISSGGSTYYADSVKGRFTISRDNAKNTVYLQMNSLKPEDTAVYYCARLYRVGRYLFDVDSWGQGTQVTVSS	high polyreactivity
QVQLVESCGGLVQAGGSLRLSCAASGLIFPVYAMGWYRQAPGKEREFVASIWRGGTTYYADSVKGRFTISRDNEKNTVYLQMNSLKPEDTAVYYCAARDYPRGLVFPFTKYDYWGQGTQVTVSS	high polyreactivity
QVQLVESGGGLVQAGGSLRLSCAASGSTFIGYAMGWYRKAPGKERELVAAITGGGRTNYADSVKGRFTISRDNAKNTVYLQMNSLKPEDTAVYYCAARGVTRGYAKPYYSRGDYWGQGTQVTVSS	low polyreactivity
QVQLVESGGGLVQAGGTLRLSCAASGRIFQYYDMGWYRQAPGKERELVAAITFSGGSTYYADSVKGRFTISRDNAKNTVYLQMNSLKPEDTAVYYCARGYWVYYPDGDYWGQGTQVTVSS	low polyreactivity
QVQLVESGGGLVQAGGSLRLSCAASGSIFYTNVMGWYRQAPGKERELVAAISSRGGSTYYADSVKGRFTISRDNAKNTVYLQMNSLKPEDTAVYYCAARFLHYYPTRGYTYDYWGQGTQVTVSS	high polyreactivity
QVQLVESGGGLVQAGGSLRLSCAASGRIFAWYTMGWYRQAPGKERELVAAISWNGGRTYYADSVKGRFTISRDNAKNTVYLQMNSLKPEDTAVYYCNADWYWRVYWGQGTQVTVSS	high polyreactivity
QVQLVESGGGLVQAGGSLRLSCAASGSIIGTYAMGWYRQAPGKERELVAAISSSGGRTYYADSVKGRFTISRDNAKNTVYLQMNSLKPEDTAVYYCNTRPGTVFRAGGDYWGQGTQVTVSS	high polyreactivity
QDQVVESGGGLVQAGGSLRLSCAASGRTFAIYAMGWYRQAPGKEREFVAAITWRSGSTYYADSVKGRFTISRDNAKNTVYLQMMSVKPEDTAVYFCAAYPYSYLQLMDYWGQGTQVTVSS	high polyreactivity
QVQLVESGGGLVQAGGSLRLSCAASGITFGSYDMGWYRQAPGKERELVAAIDSDGGTYYADSVKGRFTISRDNAKNTVYLQMNSLKPEDTAVYYCAALLRSFPPYSFYYWGQGTQVTVSS	high polyreactivity
QVQLVESGGGLVQAGGSLRLSCAASGFTFSFYAMGWYRQAPGKERELVAAISSGGRTSYADSVKGRFTISRDNAKNTVYLQMNSLKPEDTAVYYCAASYPGRYWLYRYEYWGQGTQVTVSS	high polyreactivity

Sequence	polyreactivity (PSR sort gate)
HVKLVESGGGLVQAGGCLRLSCAASGSNFFHNAMGWYRQAPGKERELVATISWRSASTYYADSVKGRFTISRDNAKKTVYLQMNSLKPEDTAVYYCAAKLHYRQYYYRYGYDYWGQGTQVTVSS	high polyreactivity
QVQLLESGGGLVQAGGSLRLSCAASGFTFVYYAMGWYRQAPGKERELVAAISSSGGITYYADSVKGRFTISRDNAKNTVYLQMNSMKPEDTAVYYCAARLWYPYYYWGQGTQVTVSS	high polyreactivity
QVQLVESGGGLVQAGGSLRLSCAASGRTFASYVMGWYRQAPGKERELVASITRTGSTYYADSVKGRFTISRDNAKNTVYLQMNSLKPEDTAVYYCNAATFYRRSSTRGFNYWGQGTQVTVSS	high polyreactivity
QVQLVESGGGLVQAGGSLRLSCAASGFTFGSYAMGWYRQAPGKERELVAAIRQSATRTYYADSVKGRFTISRDNAKNTVYLQMNSLKPEDTAVYYCNVARPGKYFYIYDYWGQGTQVTVSS	low polyreactivity
QVQLVESGGGLVQAGGSLRLSCDASGIIFFIYTMGWYRQAPGKERELVAVITRGGRTKYADSVKGRLTISRDNAKNTVFLQMNRLNPEDNAVYYCAAKGSRSYYWGQGTHVTVSS	low polyreactivity
QVQLVESGGGLVQAGGSLRLSCAASGRIFSNNAMGWYRQAPGKERELVASIDSGDSTTYADSVKGRFTISRDNAKNTVYLQMNSLKPEDTAVYYCNAGPAEADYDYWGQGTQVTVSS	high polyreactivity
QVQLVESGGGLVQAGGSLRLSCAASGRTFFIYAMGWYRPAPGKERELVAAITYGGGRTFYADSVKGRFTISRDNAKYTVYLQMNSLKPEDTAVYYCAATVRGKRSTYDYWGQGTQVTVSS	high polyreactivity
QLQLGESGGGLVQAGGSLRLSCAASGSTFIVYAMGWYRQAPGKVRELVAAISSDGSTYYADSVKGRFTISRDNAKNTVYLQMNRLKPEYTAVYYCAAYVYDADTGYDYWGQGTQVTVSS	low polyreactivity
QVQLVESGGGLVQAGGSLRLSCAASGSTLYKYAMGWYRQSPGKERELVAAISWSGSSTYYADSVKGRFTISRDNAKNTVYLQMNSLKPVDTAVYYCAAYPRPYIGYTDVYVWYEFDYWGQGTQVTVSS	low polyreactivity
QVQLVESGGGLVQAGGSLRLSCAASGRIFGRNAMGWYRQAPGNERELVAAINFGGTSTYYADSVKGRFTISRDNAKNTVYLQMNSLKPEDTAVYYCAARSRQDNFYRSYNSWGQGTQVTVSS	high polyreactivity
QVQLVESGGGLVQAGGSLRLSCAASGRTFSYYAMGWYRQAPGKERELVAAISRAGRTNYADSVKGRFTISRDNAKNTVYLQMHSLKPEDTAVYYCAADLAYGRPFVSYRTRDWGQGTQVTVSS	high polyreactivity
QVQLVESGGGLVQAGGSLRLSCAASGRIFSSYVMGWYRQAPGKERELVAAIRWSGGSTYYADSVKGRFTISRDNAKNTVYLQMNSLKPEDTAVYYCAAVVYRYYATGYGYWGQGTQVTVSS	high polyreactivity
QVQLVESGGGLVQAGGSLRLSCAASGLTFPYYVMGWSRQAPGKERELVAAITTDDRTYYADSVKGRFTISRDNAKNTVYLQMNSLKPEDTAVYYCNVVIYYFNSRTVYYDYDYWGQGTQVTVSS	high polyreactivity
QVQLVESGGGLVQAGGSLRLSCAASGSIFVDTAMGWYRQAPGKERELVAAINWSGGSTYYADSVKGRFTISRDNAQNTVYLQMNSLKPEDTAVYYCYAARPGQTWDEHSWYEYWGQGTQVTVSS	low polyreactivity
QVQLVESGGGLVQAGGSLRLSCAASGSIFTAYARGWYRQAPGKERELVAAISRSGGRTYYADSVKGRFTISRDNPKKTVYLQMNSLKPEDTAVYYCAARRRRYIANLYNYWGQGTQVTVSS	high polyreactivity
